Source: patent publication US20060045881A1 (University of Texas, published 2006)

Legend:
[1] = biological target: T1, HLA-A2.1 heavy chain with I125-labeled beta2-microglobulin (heterotrimer complex assay) (human, I125-labeled); test: dissociation of I125-labeled beta2-microglobulin from heavy chain/peptide/beta2m complex, HPLC gel filtration
T1 construct: Cell-free assay; also called heterotrimer complex of the HLA-A2.1 heavy chain, peptide, and beta2-microglobulin

[2] = biological target: T2, HLA-A2.1 (HLA-A*0201) on the surface of T2 cells (human)
T2 construct: also called surface HLA-A2.1 on T2

Binder	T1/2 (binding half-life) [1]	FI CCNE2144-152/FI PR1 (fluorescence ratio against PR1) [2]
RLFPDFFTRV [PR2 peptide (proteinase 3 derived, RLFPDFFTRV as printed in Table 4)]	2.33 h	
ILLDWLLEV (also called cyclin E2 peptide) [CCNE2 144-152 (cyclin E2 derived nonameric peptide)]		1.19 ratio
VLQELNVTV (Synthetic peptide, minimum 95% purity) [PR1 peptide (proteinase 3 aa 169-177, VLQELNVTV)]	24.3 h	
